Source: patent publication US20220305056A1 (Janssen / Centocor, published 2022)
Ends that are not written are not given here.

Tests used:
[1] = target: T1, H3-23/L1-39 scFv with (G4S)4 peptide linker; assay: bio-layer interferometry
T1 construct: also called inert scFv

[2] = target: T2, immobilized scFv containing a G4S linker; assay: ELISA and flow cytometry (FIGS. 2 and 3)
T2 construct: Antigen coated on the ELISA plate at 0.1 ug/mL
Experimental: Plates were washed 3 times with PBS. […] Plates were washed 3 times with PBS. […] Optical density at 450 nm was measured on (SpectraMax M5, Molecular Devices; San Jose, Calif.). Data was analyzed in GraphPad Prism software (Graphpad).
HEK293-T cells were cultured in standard DMEM with (Dulbecco's Modified Eagle's Medium Components comprising glucose, L-glutamine, NaHCO₃, and phenol red). Transfection of cells with mRNA for linker containing scFv protein constructs was carried out following manufacturer's protocol (MessengerMax, Invitrogen). 5 μg of IVT synthesized mRNA was transfected in HEK293-T cells at a density of 1×10⁶ cells/mL and incubated 24 hours prior to flow cytometry analysis. Cells were added to 96 well U bottom plates at a concentration of 100,000 cells/well. Plates were spun at 300 g for 3 minutes and supernatant was discarded. Sytox green (Invitrogen) Live/Dead stain was added to the cells and incubated for 10 minutes at room temperature in a dark chamber. The cells were washed twice with PBS, and the supernatant was discarded. A 12 point 1:3 serial dilution with a starting concentration of 100 nM of primary antibody was prepared. The dilution series was added to cells and incubated for 1 hour at 4° C. in the dark. Plates were spun at 300 g for 3 minutes, the supernatants discarded, and cells washed twice with FACS running buffer (Becton Dickinson (BD), Franklin Lakes, N.J.). […]

SEQ ID NO 49 = target: T3, SEQ ID NO 49 (also: biotinylated); assay: bio-layer interferometry, truncated peptide panel
T3 construct: Truncation variant of the (G4S)4 linker; also called truncated G4S peptide
T3 peptide: GGGGSGGGGSGGGGSG
Experimental: (§1) All reactions were performed at 25° C. in 1× kinetics buffer (ForteBio; Fremont, Calif.). Data were collected with Octet Data Acquisition program (ForteBio) and analyzed using Octet Data Analysis program (ForteBio).

SEQ ID NO 50 = target: T4, SEQ ID NO 50 (not fully specified; also: biotinylated); assay: bio-layer interferometry, truncated peptide panel
T4 construct: Truncation variant of the (G4S)4 linker; also called truncated G4S peptide; L6
T4 peptide: GGGGSGGGGSGGGGS
Experimental: as §1

SEQ ID NO 51 = target: T5, SEQ ID NO 51 (also: biotinylated); assay: bio-layer interferometry, truncated peptide panel
T5 construct: Truncation variant of the (G4S)4 linker; also called truncated G4S peptide
T5 peptide: GGGGSGGGGSGGGG
Experimental: as §1

SEQ ID NO 52 = target: T6, SEQ ID NO 52 (also: biotinylated); assay: bio-layer interferometry, truncated peptide panel
T6 construct: Truncation variant of the (G4S)4 linker; also called truncated G4S peptide
T6 peptide: GGGGSGGGGSGGG
Experimental: as §1

SEQ ID NO 53 = target: T7, SEQ ID NO 53 (not fully specified; also: biotinylated); assay: bio-layer interferometry, truncated peptide panel
T7 construct: Truncation variant of the (G4S)4 linker; also called truncated G4S peptide
T7 peptide: GGGGSGGGGSGG
Experimental: as §1

[3] = target: T8, 10-mer peptide (SEQ ID NO:55) (also: biotinylated); assay: bio-layer interferometry, truncated peptide panel
T8 construct: Truncation variant of the (G4S)4 linker; smallest linker detected by CEN-63-13; also called smallest linker
T8 peptide: GGGGSGGGGS
Experimental: as §1

SEQ ID NO 46 = target: T9, SEQ ID NO 46 (also: biotinylated); assay: bio-layer interferometry, truncated peptide panel
T9 construct: Truncation variant of the (G4S)4 linker; also called truncated G4S peptide
T9 peptide: GGGGSGGGGSGGGGSGGGG
Experimental: as §1

SEQ ID NO 47 = target: T10, SEQ ID NO 47 (also: biotinylated); assay: bio-layer interferometry, truncated peptide panel
T10 construct: Truncation variant of the (G4S)4 linker; also called truncated G4S peptide
T10 peptide: GGGGSGGGGSGGGGSGGG
Experimental: as §1

SEQ ID NO 48 = target: T11, SEQ ID NO 48 (also: biotinylated); assay: bio-layer interferometry, truncated peptide panel
T11 construct: Truncation variant of the (G4S)4 linker; also called truncated G4S peptide
T11 peptide: GGGGSGGGGSGGGGSGG
Experimental: as §1

[4] = target: T2, immobilized scFv containing a G4S linker; assay: ELISA, scFv coated on the plate, anti-human Fc HRP detection
Experimental: MaxiSorb 96 plates (Nunc; Roskilde, Denmark) were coated with antigen at 0.1 μg/mL concentration and incubated overnight at 4° C. Plates were washed 3 times with PBS and blocked with PBS plus 5% milk powder for 1 hour at room temperature. Plates were washed 3 times with PBS. […] Plates were washed 3 times with PBS. […] Optical density at 450 nm was measured on (SpectraMax M5, Molecular Devices; San Jose, Calif.). Data was analyzed in GraphPad Prism software (Graphpad).

(G4S)4 peptide = target: T12, (G4S)4 peptide (biotinylated); assay: bio-layer interferometry, biotinylated peptide on streptavidin sensor
T12 construct: Biotinylated peptide immobilised on streptavidin biosensors for BLI; also called WT (G4S)4 peptide linker; WT G4S linker
T12 peptide: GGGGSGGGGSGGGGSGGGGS
Experimental: as §1

[5] = target: T13, cell-surface scFv with a G4S linker (CAR-T construct on transfected HEK293T cells); assay: flow cytometry on HEK293T cells transfected with CAR-T constructs, fluorescent anti-human Fc detection
T13 construct: also called cell surface antigen; linker containing scFv protein construct
Experimental: HEK293-T cells were cultured in standard DMEM with (Dulbecco's Modified Eagle's Medium Components comprising glucose, L-glutamine, NaHCO₃, and phenol red). Transfection of cells with mRNA for linker containing scFv protein constructs was carried out following manufacturer's protocol (MessengerMax, Invitrogen). 5 μg of IVT synthesized mRNA was transfected in HEK293-T cells at a density of 1×10⁶ cells/mL and incubated 24 hours prior to flow cytometry analysis. Cells were added to 96 well U bottom plates at a concentration of 100,000 cells/well. Plates were spun at 300 g for 3 minutes and supernatant was discarded. Sytox green (Invitrogen) Live/Dead stain was added to the cells and incubated for 10 minutes at room temperature in a dark chamber. The cells were washed twice with PBS, and the supernatant was discarded. A 12 point 1:3 serial dilution with a starting concentration of 100 nM of primary antibody was prepared. The dilution series was added to cells and incubated for 1 hour at 4° C. in the dark. Plates were spun at 300 g for 3 minutes, the supernatants discarded, and cells washed twice with FACS running buffer (Becton Dickinson (BD), Franklin Lakes, N.J.). Secondary antibody (Anti human Fc, Biolegend; San Diego, Calif.) was diluted in FACS buffer according to manufacturer's protocol. 50 μl of secondary antibody was added to the cells and incubated for 30 minutes at 4° C. in the dark. […]

B1: CEN-63-13 mAb (antibody, human IgG1, V domains shown)
VH: QSVKESGGRLVTPGTPLTLTCTVSGFSLSSNAIDWVRQAPGKGLEWIGILGRSGSTYYASWAKGRFTISRTSSTTVDLKITSPTTEDTATYFCARHFYLWGPGTLVTVSS
VL: AQVLTQTASPVSAAVGGTVTINCQASQSVYSNYLSWYQQKPGQPPKLLMATTSTLEPGVPSRFKGSGSGTQFTLTISDLECDDAATYYCAGGYSVDIWVFGGGTEVVVKR
notes: also called CEN-63 C13; CEN-63 C13 anti-G4S antibody
Kd [1]: 8.1 nM
Kd [2]: 0.57 nM
fold decrease in binding affinity compared to WT G4S linker (SEQ ID NO 49): 2 fold
fold decrease in binding affinity compared to WT G4S linker (SEQ ID NO 50): 2 fold
fold decrease in binding affinity compared to WT G4S linker (SEQ ID NO 51): 2 fold
fold decrease in binding affinity compared to WT G4S linker (SEQ ID NO 52): 2 fold
fold decrease in binding affinity compared to WT G4S linker (SEQ ID NO 53): 2 fold
fold decrease in binding affinity compared to WT G4S linker [3]: 6 fold
fold decrease in binding affinity compared to WT G4S linker (SEQ ID NO 46): 2 fold
fold decrease in binding affinity compared to WT G4S linker (SEQ ID NO 47): 2 fold
fold decrease in binding affinity compared to WT G4S linker (SEQ ID NO 48): 2 fold
EC50 [4]: 0.57 nM
Kd ((G4S)4 peptide): 3.6 nM
EC50 [5]: 0.78 nM
